Assay results taken from patent publication US20220054583A1 (ANBITION S R L, published 2022).

What was measured:
[1] = target: human recombinant receptor VEGFR-1, seven extracellular domains fused to the Fc domain of human IgG (R&D Systems, cat No 321-FL) (human) (UniProt P17948); assay: competition ELISA, residual binding of PlGF (5 ng/ml) to coated VEGFR-1-Fc, peptide 3125 nM
[2] = target: human recombinant receptor VEGFR-1, seven extracellular domains fused to the Fc domain of human IgG (R&D Systems, cat No 321-FL) (human) (UniProt P17948); assay: competition ELISA, residual binding of VEGF-A (5 ng/ml) to coated VEGFR-1-Fc, peptide 6250 nM
[3] = target: human recombinant receptor VEGFR-1, seven extracellular domains fused to the Fc domain of human IgG (R&D Systems, cat No 321-FL) (human) (UniProt P17948); assay: competition ELISA, residual binding of VEGF-A (5 ng/ml) to coated VEGFR-1-Fc, peptide 25000 nM
[4] = target: human recombinant receptor VEGFR-1, seven extracellular domains fused to the Fc domain of human IgG (R&D Systems, cat No 321-FL) (human) (UniProt P17948); assay: competition ELISA, residual binding of PlGF (5 ng/ml) to coated VEGFR-1-Fc, peptide 1560 nM
[5] = target: human recombinant receptor VEGFR-1, seven extracellular domains fused to the Fc domain of human IgG (R&D Systems, cat No 321-FL) (human) (UniProt P17948); assay: competition ELISA, residual binding of PlGF (5 ng/ml) to coated VEGFR-1-Fc, peptide 6250 nM
[6] = target: human recombinant receptor VEGFR-1, seven extracellular domains fused to the Fc domain of human IgG (R&D Systems, cat No 321-FL) (human) (UniProt P17948); assay: competition ELISA, residual binding of VEGF-A (5 ng/ml) to coated VEGFR-1-Fc, peptide 3125 nM
[7] = target: human recombinant receptor VEGFR-1, seven extracellular domains fused to the Fc domain of human IgG (R&D Systems, cat No 321-FL) (human) (UniProt P17948); assay: competition ELISA, residual binding of PlGF (5 ng/ml) to coated VEGFR-1-Fc, peptide 25000 nM
[8] = target: human recombinant receptor VEGFR-1, seven extracellular domains fused to the Fc domain of human IgG (R&D Systems, cat No 321-FL) (human) (UniProt P17948); assay: competition ELISA, residual binding of PlGF (5 ng/ml) to coated VEGFR-1-Fc, peptide 50000 nM
[9] = target: human recombinant receptor VEGFR-1, seven extracellular domains fused to the Fc domain of human IgG (R&D Systems, cat No 321-FL) (human) (UniProt P17948); assay: competition ELISA, residual binding of VEGF-A (5 ng/ml) to coated VEGFR-1-Fc, peptide 1560 nM
[10] = target: human recombinant receptor VEGFR-1, seven extracellular domains fused to the Fc domain of human IgG (R&D Systems, cat No 321-FL) (human) (UniProt P17948); assay: competition ELISA, residual binding of PlGF (5 ng/ml) to coated VEGFR-1-Fc, peptide 780 nM
[11] = target: human recombinant receptor VEGFR-1, seven extracellular domains fused to the Fc domain of human IgG (R&D Systems, cat No 321-FL) (human) (UniProt P17948); assay: competition ELISA, residual binding of PlGF (5 ng/ml) to coated VEGFR-1-Fc, peptide 12500 nM
[12] = target: human recombinant receptor VEGFR-1, seven extracellular domains fused to the Fc domain of human IgG (R&D Systems, cat No 321-FL) (human) (UniProt P17948); assay: competition ELISA, residual binding of VEGF-A (5 ng/ml) to coated VEGFR-1-Fc, peptide 780 nM
[13] = target: human recombinant receptor VEGFR-1, seven extracellular domains fused to the Fc domain of human IgG (R&D Systems, cat No 321-FL) (human) (UniProt P17948); assay: competition ELISA, residual binding of VEGF-A (5 ng/ml) to coated VEGFR-1-Fc, peptide 12500 nM
[14] = target: human recombinant receptor VEGFR-1, seven extracellular domains fused to the Fc domain of human IgG (R&D Systems, cat No 321-FL) (human) (UniProt P17948); assay: competition ELISA, residual binding of VEGF-A (5 ng/ml) to coated VEGFR-1-Fc, peptide 50000 nM

human recombinant receptor VEGFR-1, seven extracellular domains fused to the Fc domain of human IgG (R&D Systems, cat No 321-FL) (human), sequence (P17948 27-758): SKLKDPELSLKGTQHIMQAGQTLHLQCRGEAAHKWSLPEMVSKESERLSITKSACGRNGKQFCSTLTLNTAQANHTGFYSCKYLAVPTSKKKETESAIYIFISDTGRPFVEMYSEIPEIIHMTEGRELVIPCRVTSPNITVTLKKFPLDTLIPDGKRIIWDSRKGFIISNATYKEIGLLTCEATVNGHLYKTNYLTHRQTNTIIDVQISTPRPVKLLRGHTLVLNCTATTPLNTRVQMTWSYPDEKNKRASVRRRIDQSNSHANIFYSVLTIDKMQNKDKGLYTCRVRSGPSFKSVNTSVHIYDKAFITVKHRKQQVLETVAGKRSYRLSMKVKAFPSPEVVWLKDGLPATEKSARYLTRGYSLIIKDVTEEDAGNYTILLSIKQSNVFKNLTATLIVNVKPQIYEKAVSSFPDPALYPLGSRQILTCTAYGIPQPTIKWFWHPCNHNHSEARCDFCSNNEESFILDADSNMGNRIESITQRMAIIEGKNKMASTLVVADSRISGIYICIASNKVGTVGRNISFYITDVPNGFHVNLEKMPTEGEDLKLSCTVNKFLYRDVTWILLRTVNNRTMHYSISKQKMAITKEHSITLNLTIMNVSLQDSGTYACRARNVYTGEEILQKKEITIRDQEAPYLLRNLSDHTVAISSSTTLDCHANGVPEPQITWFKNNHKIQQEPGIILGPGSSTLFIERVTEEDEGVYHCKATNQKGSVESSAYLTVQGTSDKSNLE

- binding % [1]: 99.5%
- binding % [2]: 91.4%
- binding % [3]: 93.4%
- binding % [4]: 102%
- binding % [5]: 93.8%
- binding % [6]: 95.2%
- binding % [7]: 88.5%
- binding % [8]: 90.2%
- binding % [9]: 103%
- binding % [10]: 98.9%
- binding % [11]: 87.2%
- binding % [12]: 100%
- binding % [13]: 100%
- binding % [14]: 87.9%
Substance: control peptide (PC), (S-Ser)-(S-Ala)-(S-Cha) tripeptide with a tetrameric structure identical to the structure of the iVR1 peptides
